Laboratory results from patent US20190040143A1.

Target: human HER3 on human cancer cell lines (human) (UniProt P21860)
Test: cell-based or functional assay

U1-59 anti-HER3 monoclonal antibody (International Patent Publication WO 2007077028)
maximal extent of pHER3 suppression, Kato III cells: 60%
potency in pHER3 ELISA, HCC827 cells, against 2C2 (fold less potent): 10
